These results are taken from patent publication US20050282743A1, “Molecular interactions in cells” (Arbor Vita Corporation, priority 2001, published 2005).

In assay [1] the target is T1, PDZ protein (GST-PDZ fusion) (Homo sapiens, UniProt Q5TCQ9).
T1 construct: made in house; host or cells: E. coli (DH5alpha, BL21 or JM109)
T1 sequence (Q5TCQ9 1-1481): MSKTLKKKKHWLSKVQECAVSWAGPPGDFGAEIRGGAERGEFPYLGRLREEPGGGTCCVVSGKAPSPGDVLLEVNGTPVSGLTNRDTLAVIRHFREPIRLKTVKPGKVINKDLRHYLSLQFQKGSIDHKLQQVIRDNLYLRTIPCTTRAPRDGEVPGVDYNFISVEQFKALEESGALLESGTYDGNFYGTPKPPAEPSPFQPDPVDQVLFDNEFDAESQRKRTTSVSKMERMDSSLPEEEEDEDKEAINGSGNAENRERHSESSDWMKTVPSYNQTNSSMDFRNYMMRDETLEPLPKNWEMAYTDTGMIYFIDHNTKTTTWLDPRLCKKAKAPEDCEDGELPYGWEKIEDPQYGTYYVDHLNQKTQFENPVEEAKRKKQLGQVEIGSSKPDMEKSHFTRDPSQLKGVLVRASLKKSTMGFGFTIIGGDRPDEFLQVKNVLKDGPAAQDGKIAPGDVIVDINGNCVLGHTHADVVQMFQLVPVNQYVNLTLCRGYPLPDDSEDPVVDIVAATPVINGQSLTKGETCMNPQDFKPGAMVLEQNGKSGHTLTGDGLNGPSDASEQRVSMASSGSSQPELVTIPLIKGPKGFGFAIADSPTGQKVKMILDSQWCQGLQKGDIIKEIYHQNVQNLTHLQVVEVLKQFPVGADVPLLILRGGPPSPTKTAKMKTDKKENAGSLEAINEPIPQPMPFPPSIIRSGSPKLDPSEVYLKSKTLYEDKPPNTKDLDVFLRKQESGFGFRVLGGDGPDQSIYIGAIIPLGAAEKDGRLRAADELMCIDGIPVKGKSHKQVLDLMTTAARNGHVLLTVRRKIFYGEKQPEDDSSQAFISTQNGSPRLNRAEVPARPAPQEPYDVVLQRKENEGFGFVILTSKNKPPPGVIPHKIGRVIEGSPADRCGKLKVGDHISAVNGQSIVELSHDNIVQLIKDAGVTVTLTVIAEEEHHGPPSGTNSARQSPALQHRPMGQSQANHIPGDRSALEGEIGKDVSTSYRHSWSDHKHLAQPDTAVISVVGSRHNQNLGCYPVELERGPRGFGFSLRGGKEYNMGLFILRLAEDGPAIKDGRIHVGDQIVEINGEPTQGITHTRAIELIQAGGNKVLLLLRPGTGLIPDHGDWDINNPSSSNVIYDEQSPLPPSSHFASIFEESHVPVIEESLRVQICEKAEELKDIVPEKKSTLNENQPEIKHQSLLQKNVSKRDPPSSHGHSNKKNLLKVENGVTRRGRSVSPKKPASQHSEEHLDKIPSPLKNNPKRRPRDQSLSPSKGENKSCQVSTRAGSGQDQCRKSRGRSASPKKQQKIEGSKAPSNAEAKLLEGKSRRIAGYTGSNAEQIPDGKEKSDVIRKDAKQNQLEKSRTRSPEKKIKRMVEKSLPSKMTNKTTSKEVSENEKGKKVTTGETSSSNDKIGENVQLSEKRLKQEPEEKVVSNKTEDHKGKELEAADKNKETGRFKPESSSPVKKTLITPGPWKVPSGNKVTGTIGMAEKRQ
The assay can be described thus: G' assay (10 uM PL peptide), results of TABLE 7 and TABLE 12. The format is binding. The procedure, abridged: (§1)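 Biotin-PL peptide (N-term label), 10 uM vs GST-PDZ; protein 5 ug/ml by default. A450 nm binned: 1 = 0-1, 2 = 1-2, 3 = 2-3, 4 = 3-4, 5 = >4 on >2 repeats, 0 = no binding.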

Assay [2] deals with T2, PDZ protein (GST-PDZ fusion) (Homo sapiens, UniProt O75970).
T2 construct: made in house; host or cells: E. coli (DH5alpha, BL21 or JM109)
T2 sequence (O75970 whole entry, the tested form may be a part): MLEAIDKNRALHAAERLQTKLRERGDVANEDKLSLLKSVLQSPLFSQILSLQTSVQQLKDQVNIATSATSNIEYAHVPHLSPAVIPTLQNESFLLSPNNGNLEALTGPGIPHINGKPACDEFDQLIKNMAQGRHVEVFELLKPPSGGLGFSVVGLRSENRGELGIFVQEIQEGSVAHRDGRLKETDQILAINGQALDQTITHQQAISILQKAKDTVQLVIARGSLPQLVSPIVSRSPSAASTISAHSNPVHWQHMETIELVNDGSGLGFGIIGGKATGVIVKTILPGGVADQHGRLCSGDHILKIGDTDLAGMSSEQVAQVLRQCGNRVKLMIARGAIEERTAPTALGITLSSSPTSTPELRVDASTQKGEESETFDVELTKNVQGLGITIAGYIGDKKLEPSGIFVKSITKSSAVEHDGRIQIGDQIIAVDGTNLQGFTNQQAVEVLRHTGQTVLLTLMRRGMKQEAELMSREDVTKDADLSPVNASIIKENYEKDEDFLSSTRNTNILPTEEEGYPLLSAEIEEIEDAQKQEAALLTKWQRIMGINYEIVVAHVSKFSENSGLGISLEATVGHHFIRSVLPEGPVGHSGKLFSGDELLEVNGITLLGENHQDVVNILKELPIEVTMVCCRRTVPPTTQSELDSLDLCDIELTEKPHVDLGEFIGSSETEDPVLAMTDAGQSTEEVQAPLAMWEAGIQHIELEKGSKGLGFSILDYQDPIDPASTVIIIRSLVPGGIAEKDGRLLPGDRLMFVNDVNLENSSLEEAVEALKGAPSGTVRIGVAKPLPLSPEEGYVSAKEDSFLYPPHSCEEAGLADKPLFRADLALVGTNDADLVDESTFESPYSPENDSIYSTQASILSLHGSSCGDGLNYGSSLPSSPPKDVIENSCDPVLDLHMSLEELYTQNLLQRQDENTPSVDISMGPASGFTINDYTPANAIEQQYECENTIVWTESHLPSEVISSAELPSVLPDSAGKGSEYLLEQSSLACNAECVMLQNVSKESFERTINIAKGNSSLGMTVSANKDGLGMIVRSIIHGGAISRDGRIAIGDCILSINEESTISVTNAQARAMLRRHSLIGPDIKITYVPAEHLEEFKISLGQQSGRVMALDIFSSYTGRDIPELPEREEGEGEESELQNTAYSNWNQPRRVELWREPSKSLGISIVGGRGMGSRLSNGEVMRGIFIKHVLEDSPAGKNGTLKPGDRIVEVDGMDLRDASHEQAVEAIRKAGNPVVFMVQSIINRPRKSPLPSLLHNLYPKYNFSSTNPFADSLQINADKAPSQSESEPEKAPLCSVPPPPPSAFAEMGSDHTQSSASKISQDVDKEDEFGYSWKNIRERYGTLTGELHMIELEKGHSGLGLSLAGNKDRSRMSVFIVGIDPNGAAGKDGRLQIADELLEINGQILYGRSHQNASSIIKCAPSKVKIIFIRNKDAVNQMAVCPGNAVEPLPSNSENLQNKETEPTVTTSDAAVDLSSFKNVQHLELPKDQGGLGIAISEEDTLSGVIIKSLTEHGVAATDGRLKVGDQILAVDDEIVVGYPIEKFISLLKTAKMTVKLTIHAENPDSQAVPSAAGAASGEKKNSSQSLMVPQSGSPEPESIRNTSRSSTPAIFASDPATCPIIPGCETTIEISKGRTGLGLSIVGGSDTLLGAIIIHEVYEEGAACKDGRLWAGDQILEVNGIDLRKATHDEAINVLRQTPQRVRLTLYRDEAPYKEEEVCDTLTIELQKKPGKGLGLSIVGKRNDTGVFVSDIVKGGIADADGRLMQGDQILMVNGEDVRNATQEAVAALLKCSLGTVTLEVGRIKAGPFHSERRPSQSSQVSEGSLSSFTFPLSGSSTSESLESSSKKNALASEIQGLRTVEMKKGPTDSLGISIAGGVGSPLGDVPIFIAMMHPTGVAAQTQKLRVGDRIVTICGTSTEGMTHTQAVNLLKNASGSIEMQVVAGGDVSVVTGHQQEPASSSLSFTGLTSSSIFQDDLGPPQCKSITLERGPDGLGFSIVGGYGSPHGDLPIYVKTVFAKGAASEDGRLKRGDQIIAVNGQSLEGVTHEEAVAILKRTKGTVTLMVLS
The assay is described as above. The format is binding. In outline:
as §1

Ends that are not written are not given here. Peptide text beside a SMILES is read from it. * marks the point of attachment. Biotin = O=C1N[C@H]2[C@H](CS[C@H]2CCCCC(=O)*)N1

With “PYSELNYETSHYPASPDSWV (Biotin-PYSELNYETSHYPASPDSWV) [catenin - delta 2]”, the Classification in assay [1] (PDZ KIAA1634, PDZ Domain 5) is 3 (A450 nm 2-3).
In the case of CKR5_HUMAN (ERASSVYTRSTGEQEISVGL), the Classification in assay [1] (PDZ KIAA1634, PDZ Domain 1) was 1 (A450 nm 0-1).
Same read-out and setting: under “ALVLIAFCIIRRRPSAYQAL (Biotin-ALVLIAFCIIRRRPSAYQAL) [CD68]” stands 2 (A450 nm 1-2).
“KTMPAATYRLLTGQEQPVYL (Biotin-KTMPAATYRLLTGQEQPVYL) [MINT-3]”: the Classification is reported as 1 (A450 nm 0-1) in assay [2] (PDZ MUPP-1, PDZ Domain 3) and 2 (A450 nm 1-2) in assay [2] (PDZ MUPP-1, PDZ Domain 11).
As for `CC(C)C[C@H](NC(=O)[C@H](CC(=O)O)NC(=O)[C@H](CO)NC(=O)[C@H](CCC(=O)O)NC(=O)CNC(=O)[C@H](Cc1ccc(O)cc1)NC(=O)[C@H](CC(C)C)NC(=O)[C@H](C)NC(=O)[C@H](CO)NC(=O)[C@H](CO)NC(=O)[C@H](Cc1ccccc1)NC(=O)[C@H](C)NC(=O)[C@H](C)NC(=O)[C@H](Cc1ccc(O)cc1)NC(=O)[C@H](CC(=O)O)NC(=O)[C@H](CC(C)C)NC(=O)[C@H](C)NC(=O)CNC(=O)[C@@H]1CCCN1C(=O)[C@@H](NC(=O)CCCC[C@@H]1SC[C@@H]2NC(=O)N[C@@H]21)C(C)C)C(=O)O` [a-actinin 2] (Biotin-VPGALDYAAFSSALYGESDL-OH; C-terminus assumed), the Classification in assay [1] (PDZ KIAA1634, PDZ Domain 5) is 5 (A450 nm of 4 more than 2× repeated).
With “GGGGGSGGGGGSGIESVKI [GLUR2 (glutamate receptor 2-modified)]”, the Classification in assay [1] (PDZ KIAA1634, PDZ Domain 1) was 4 (A450 nm 3-4).
For “RNIEEVYVGGKQVVPFSSSV (Biotin-RNIEEVYVGGKQVVPFSSSV) [Nedasin (s-form)]”, the Classification in assay [1] (PDZ KIAA1634, PDZ Domain 1) was 1 (A450 nm 0-1).
`CC[C@H](C)[C@H](NC(=O)[C@H](C)NC(=O)[C@H](CC(C)C)NC(=O)[C@H](Cc1c[nH]c2ccccc12)NC(=O)[C@H](Cc1c[nH]cn1)NC(=O)[C@H](CCC(N)=O)NC(=O)[C@H](CC(C)C)NC(=O)[C@H](CCC(N)=O)NC(=O)[C@H](Cc1ccccc1)NC(=O)[C@H](CCC(N)=O)NC(=O)[C@H](CCCNC(=N)N)NC(=O)[C@@H](NC(=O)[C@H](CC(=O)O)NC(=O)[C@H](CCCNC(=N)N)NC(=O)[C@H](CCC(N)=O)NC(=O)[C@H](C)NC(=O)[C@@H](NC(=O)[C@H](CC(C)C)NC(=O)[C@H](Cc1c[nH]cn1)NC(=O)[C@H](Cc1c[nH]cn1)NC(=O)CCCC[C@@H]1SC[C@@H]2NC(=O)N[C@@H]21)C(C)C)[C@@H](C)CC)C(=O)O` [noradrenaline transporter] (Biotin-HHLVAQRDIRQFQLQHWLAI-OH; C-terminus assumed): the Classification in assay [2] (PDZ MUPP-1, PDZ Domain 3) is recorded as 4 (A450 nm 3-4); in assay [2] (PDZ MUPP-1, PDZ Domain 7), 3 (A450 nm 2-3); in assay [2] (PDZ MUPP-1, PDZ Domain 9) it was 3 (A450 nm 2-3).
As for “A2AA_HUMAN (modified) (Biotin-HDFRRAFKKILARGDRKRIV; not fully specified)”, the Classification is given as 2 (A450 nm 1-2) in assay [2] (PDZ MUPP-1, PDZ Domain 6); 1 (A450 nm 0-1) in assay [2] (PDZ MUPP-1, PDZ Domain 8); 1 (A450 nm 0-1) in assay [2] (PDZ MUPP-1, PDZ Domain 13).
With “A2AC_HUMAN (Modified) (Biotin-DFRPSFKHILFRRARRGFRQ; not fully specified)”, in assay [2] (PDZ MUPP-1, PDZ Domain 4), the Classification was 3 (A450 nm 2-3).
In the case of `CC[C@H](C)[C@H](NC(=O)[C@H](Cc1ccc(O)cc1)NC(=O)[C@@H](NC(=O)[C@@H]1CCCN1C(=O)[C@H](CCC(N)=O)NC(=O)[C@H](CCC(=O)O)NC(=O)[C@H](CCC(N)=O)NC(=O)[C@H](C)NC(=O)[C@@H](NC(=O)[C@H](CC(C)C)NC(=O)[C@H](CC(C)C)NC(=O)[C@H](CCCNC(=N)N)NC(=O)[C@H](Cc1ccc(O)cc1)NC(=O)[C@H](CCSC)NC(=O)[C@H](C)NC(=O)[C@H](C)NC(=O)[C@@H]1CCCN1C(=O)[C@H](CCSC)NC(=O)[C@@H](NC(=O)[C@H](CCCCN)NC(=O)CCCC[C@@H]1SC[C@@H]2NC(=O)N[C@@H]21)[C@@H](C)O)[C@@H](C)O)C(C)C)C(=O)O` [MINT-1] (Biotin-KTMPAAMYRLLTAQEQPVYI-OH; C-terminus assumed), the Classification in assay [2] (PDZ MUPP-1, PDZ Domain 1) is on record as 1 (A450 nm 0-1); in assay [2] (PDZ MUPP-1, PDZ Domain 2), 1 (A450 nm 0-1); in assay [2] (PDZ MUPP-1, PDZ Domain 3) it was 3 (A450 nm 2-3); in assay [2] (PDZ MUPP-1, PDZ Domain 5), 2 (A450 nm 1-2); in assay [2] (PDZ MUPP-1, PDZ Domain 7), 3 (A450 nm 2-3); in assay [2] (PDZ MUPP-1, PDZ Domain 9), 3 (A450 nm 2-3). Besides, the Classification in assay [2] (PDZ MUPP-1, PDZ Domain 10) is given as 1 (A450 nm 0-1); in assay [2] (PDZ MUPP-1, PDZ Domain 11), 5 (A450 nm of 4 more than 2× repeated).
Turning to “GPVPGEPAKPKTSAHHATFV (Biotin-GPVPGEPAKPKTSAHHATFV)”, the Classification in assay [2] (PDZ MUPP-1, PDZ Domain 11) was 1 (A450 nm 0-1).
For `CC[C@H](C)[C@H](NC(=O)[C@H](Cc1c[nH]cn1)NC(=O)[C@H](C)NC(=O)[C@H](C)NC(=O)[C@H](CO)NC(=O)[C@@H]1CCCN1C(=O)[C@H](CCCNC(=N)N)NC(=O)[C@H](CC(=O)O)NC(=O)[C@H](CCCCN)NC(=O)[C@@H]1CCCN1C(=O)[C@H](CC(=O)O)NC(=O)[C@H](CCC(=O)O)NC(=O)CCCC[C@@H]1SC[C@@H]2NC(=O)N[C@@H]21)C(=O)N[C@H](C(=O)N[C@@H](CCC(=O)O)C(=O)N[C@@H](C)C(=O)N[C@@H](CC(C)C)C(=O)N[C@@H](CCC(=O)O)C(=O)N[C@H](C(=O)N[C@@H](CC(=O)O)C(=O)N[C@H](C(=O)O)C(C)C)[C@@H](C)O)C(C)C` [PDZ-binding kinase (PBK)] (Biotin-EDPKDRPSAAHIVEALETDV-OH; C-terminus assumed), in assay [1] (PDZ KIAA1634, PDZ Domain 2), the Classification is on record as 3 (A450 nm 2-3).
For `CC[C@H](C)[C@H](NC(=O)[C@H](Cc1ccc(O)cc1)NC(=O)[C@H](CC(C)C)NC(=O)[C@H](CCC(N)=O)NC(=O)[C@H](Cc1c[nH]cn1)NC(=O)[C@H](CO)NC(=O)[C@H](C)NC(=O)[C@H](CC(C)C)NC(=O)[C@@H](NC(=O)[C@H](CC(=O)O)NC(=O)[C@H](CCSC)NC(=O)[C@H](Cc1ccccc1)NC(=O)[C@@H]1CCCN1C(=O)[C@H](CCCNC(=N)N)NC(=O)[C@@H](NC(=O)[C@H](CC(C)C)NC(=O)[C@H](CC(N)=O)NC(=O)[C@H](CC(=O)O)NC(=O)[C@@H](NC(=O)[C@H](CO)NC(=O)CCCC[C@@H]1SC[C@@H]2NC(=O)N[C@@H]21)[C@@H](C)O)C(C)C)[C@@H](C)O)C(=O)O` [presenilin-2] (Biotin-STDNLVRPFMDTLASHQLYI-OH; C-terminus assumed), the Classification in assay [2] (PDZ MUPP-1, PDZ Domain 3) was 3 (A450 nm 2-3); in assay [2] (PDZ MUPP-1, PDZ Domain 7), 2 (A450 nm 1-2); in assay [2] (PDZ MUPP-1, PDZ Domain 9), 3 (A450 nm 2-3).
As for “PPATPSPRLALPAHHNATRL (Biotin-PPATPSPRLALPAHHNATRL) [Na+/Pi cotransporter 2]”, the Classification is reported as 1 (A450 nm 0-1) in assay [2] (PDZ MUPP-1, PDZ Domain 10) and 1 (A450 nm 0-1) in assay [2] (PDZ MUPP-1, PDZ Domain 13).
For the molecule “KTMPAAMFRLLTGQETPLYI (Biotin-KTMPAAMFRLLTGQETPLYI) [MINT-2]”, the Classification in assay [2] (PDZ MUPP-1, PDZ Domain 2) was 1 (A450 nm 0-1); in assay [2] (PDZ MUPP-1, PDZ Domain 3), 1 (A450 nm 0-1); in assay [2] (PDZ MUPP-1, PDZ Domain 7) it was 1 (A450 nm 0-1); in assay [2] (PDZ MUPP-1, PDZ Domain 9) it was 1 (A450 nm 0-1); in assay [2] (PDZ MUPP-1, PDZ Domain 11), 5 (A450 nm of 4 more than 2× repeated).
